What was measured:
[1] = biological target: T1, streptavidin (SA chip surface) (UniProt P22629 37-163, limits assumed); test: SPR, Biacore 3000, streptavidin-coated chip
T1 construct: Commercial chip coating; the construct is not described; also called streptavidin-coated chip

[2] = biological target: the molecule itself; test: circular dichroism, concentration dependence of MRE222 in PBS fitted for dimerization (coiled-coil self-association)

T1 sequence (P22629 37-163 limits assumed): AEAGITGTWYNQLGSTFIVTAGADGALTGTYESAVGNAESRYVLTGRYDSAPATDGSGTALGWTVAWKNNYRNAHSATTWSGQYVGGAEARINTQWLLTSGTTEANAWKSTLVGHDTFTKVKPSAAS

B1: PF4ZIP (peptide)
peptide: CGGRMKQLEDKVKKLLKKNYHLENEVARLKKLVG
notes: The entry is the single chain; the Kd is for its self-association into a coiled-coil dimer; also called PF4ZIP peptide
- binding result [1]: no binding
- Kd [2]: 3.48 µM
